Laboratory results published in patent US20260115299A1, “CALSEQUESTRIN-BASED METAL ION REACTIVE PARTICLE AND USES THEREOF” (TOOLBIO. CO.,LTD., priority 2022, published 2026).

How the values were obtained:
HaCaT cells [1] = assay: In vitro proliferation test (XTT); assay type: cell-based; conditions: 2.5 nM, 2 days, compared with native KGF
Method: HaCaT cells in 96-well plates were aliquoted at a specific cell/well and incubated at 37° C. in a 5% CO2 incubator with 10% FBS and 1% P/S-DMEM for one day. Starvation was performed with FBS Free DMEM for one day. After washing twice with DPBS, CSQ-KGF, CSQ, and KGF were added to FBS-free DMEM at a concentration of 2.5 nM, and the sample was divided so that the total volume became 200 ? . After incubation in an incubator for 2 days, XTT cell availability kit reagents were aliquoted, and then 450 nm absorbance was determined with a microplate reader.

HaCaT cells [2] = assay: In vitro migration test (scratch); assay type: cell-based; conditions: 10 nM, 24-hour intervals, compared with native KGF
Method: HaCaT cells were aliquoted into 24-well plates at a specific cell/well and incubated at 37° C. in a 5% CO2 incubator with 10% FBS and 1% P/S-DMEM for one day. Starvation was performed with FBS Free DMEM for one day. Cells were scratched in a straight line using a 1000 ? pipette tip. After washing twice with DPBS, CSQ-KGF, CSQ, and KGF were added to FBS Free DMEM at a concentration of 10 nM, and the sample was divided so that the total volume became 500 ? . While culturing in a 5% CO2 incubator at 37° C. scratches were observed using a phase-contrast microscope at 24-hour intervals from […], and photographs were taken. The extent of wound closure was compared by analyzing the scratch area of the captured images using ImageJ.

B1: CSQ-KGF: fusion protein of human calsequestrin CSQ1 (SEQ ID No. 1) and KGF (SEQ ID No. 12) (protein)
chain: QEGLDFPEYDGVDRVINVNAKNYKNVFKKYEVLALLYHEPPEDDKASQRQFEMEELILELAAQVLEDKGVGFGLVDSEKDAAVAKKLGLTEVDSMYVFKGDEVIEYDGEFSADTIVEFLLDVLEDPVELIEGERELQAFENIEDEIKLIGYFKSKDSEHYKAFEDAAEEFHPYIPFFATFDSKVAKKLTLKLNEIDFYEAFMEEPVTIPDKPNSEEEIVNFVEEHRRSTLRKLKPESMYETWEDDMDGIHIVAFAEEADPDGFEFLETLKAVAQDNTENPDLSIIWIDPDDFPLLVPYWEKTFDIDLSAPQIGVVNVTDADSVWMEMDDEEDLPSAEELEDWLEDVLEGEINTEDDDDDDDDMCNDMTPEQMATNVNCSSPERHTRSYDYMEGGDIRVRRLFCRTQWYLRIDKRGKVKGTQEMKNNYNIMEIRTVAVGIVAIKGVESEFYLAMNKEGKLYAKKECNEDCNFKELILENHYNTYASAKWTHNGGEMFVALNQKGIPVRGKKTKKEQKTAHFLPMAIT
HaCaT cells [1]
  proliferation efficacy (450 nm absorbance, XTT): same efficacy as native KGF
HaCaT cells [2]
  migration efficacy (extent of wound closure, scratch area): same efficacy as native KGF
